According to patent US20110183917A1 (UNIVERSITY OF MARYLAND BALTIMORE, published 2011):

T1: synMDMX (synthetic MDMX comprising amino acids 24-108 of the full length MDMX protein) (human, UniProt O15151 24-108)
T1 construct: range 24-108; A biotinylated form was the bait in the phage selections; also called MDM4; biotin-synMDMX
T1 sequence (looked up): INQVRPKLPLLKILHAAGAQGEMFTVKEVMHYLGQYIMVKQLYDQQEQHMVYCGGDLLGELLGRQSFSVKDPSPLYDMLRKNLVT


How the values were obtained:
[1] = target: T1, synMDMX (synthetic MDMX comprising …); assay: SPR competition, immobilized 15-29p53
[2] = target: T2, synMDM2 (synthetic MDM2 comprising amino acids 25-109 of the full length MDM2 protein) (human, UniProt Q00987 25-109); assay: phage display selection, peptide on M13 pIII, biotin-synMDM2 as bait
T2 construct: range 25-109; A biotinylated form (biotin-synMDM2) was the bait in the phage selections; also called biotin-synMDM2

[3] = target: T1, synMDMX (synthetic MDMX comprising …); assay: phage display selection, peptide on M13 pIII, biotin-synMDMX as bait

T2 sequence (Q00987 25-109 limits assumed): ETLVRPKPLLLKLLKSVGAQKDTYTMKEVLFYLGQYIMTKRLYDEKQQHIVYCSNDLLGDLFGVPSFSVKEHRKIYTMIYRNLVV

Binder | fold lower affinity than 15-29p53 [1] | binding result [2] | binding result [3]
CYSFDCLWKCLAMGFSSGKCINSKCKC (designed binder, also called L-Stoppin-1) [stoppin-1] | ~4 fold |  | 
DDWFQRVWSPLM (Reported only as a phage clone: the 12-mer was fused through a GlyGlyGlySer spacer to the N-terminus of M13 pIII) [L-PMI-2] |  | binds | binds
